B1: THAP domain-containing protein 8 (Homo sapiens), Q8NA92 (parent)
chain: MPKYCRAPNCSNTAGRLGADNRPVSFYKFPLKDGPRLQAWLQHMGCEHWVPSCHQHLCSEHFTPSCFQWRWGVRYLRPDAVPSIFSRGPPAKSQRRTRSTQKPVSPPPPLQKNTPLPQSPAIPVSGPVRLVVLGPTSGSPKTVATMLLTPLAPAPTPERSQPEVPAQQAQTGLGPVLGALQRRVRRLQRCQERHQAQLQALERLAQQLHGESLLARARRGLQRLTTAQTLGPEESQTFTIICGGPDIAMVLAQDPAPATVDAKPELLDTRIPSA
B2: EF-hand domain-containing protein 1 (Homo sapiens), Q5JVL4 (parent)
chain: MVSNPVHGLPFLPGTSFKDSTKTAFHRSQTLSYRNGYAIVRRPTVGIGGDRLQFNQLSQAELDELASKAPVLTYGQPKQAPPADFIPAHVAFDKKVLKFDAYFQEDVPMSTEEQYRIRQVNIYYYLEDDSMSVIEPVVENSGILQGKLIKRQRLAKNDRGDHYHWKDLNRGINITIYGKTFRVVDCDQFTQVFLESQGIELNPPEKMALDPYTELRKQPLRKYVTPSDFDQLKQFLTFDKQVLRFYAIWDDTDSMYGECRTYIIHYYLMDDTVEIREVHERNDGRDPFPLLMNRQRVPKVLVENAKNFPQCVLEISDQEVLEWYTAKDFIVGKSLTILGRTFFIYDCDPFTRRYYKEKFGITDLPRIDVSKREPPPVKQELPPYNGFGLVEDSAQNCFALIPKAPKKDVIKMLVNDNKVLRYLAVLESPIPEDKDRRFVFSYFLATDMISIFEPPVRNSGIIGGKYLGRTKVVKPYSTVDNPVYYGPSDFFIGAVIEVFGHRFIILDTDEYVLKYMESNAAQYSPEALASIQNHVRKREAPAPEAESKQTEKDPGVQELEALIDTIQKQLKDHSCKDNIREAFQIYDKEASGYVDRDMFFKICESLNVPVDDSLVKELIRMCSHGEGKINYYNFVRAFSN
partner: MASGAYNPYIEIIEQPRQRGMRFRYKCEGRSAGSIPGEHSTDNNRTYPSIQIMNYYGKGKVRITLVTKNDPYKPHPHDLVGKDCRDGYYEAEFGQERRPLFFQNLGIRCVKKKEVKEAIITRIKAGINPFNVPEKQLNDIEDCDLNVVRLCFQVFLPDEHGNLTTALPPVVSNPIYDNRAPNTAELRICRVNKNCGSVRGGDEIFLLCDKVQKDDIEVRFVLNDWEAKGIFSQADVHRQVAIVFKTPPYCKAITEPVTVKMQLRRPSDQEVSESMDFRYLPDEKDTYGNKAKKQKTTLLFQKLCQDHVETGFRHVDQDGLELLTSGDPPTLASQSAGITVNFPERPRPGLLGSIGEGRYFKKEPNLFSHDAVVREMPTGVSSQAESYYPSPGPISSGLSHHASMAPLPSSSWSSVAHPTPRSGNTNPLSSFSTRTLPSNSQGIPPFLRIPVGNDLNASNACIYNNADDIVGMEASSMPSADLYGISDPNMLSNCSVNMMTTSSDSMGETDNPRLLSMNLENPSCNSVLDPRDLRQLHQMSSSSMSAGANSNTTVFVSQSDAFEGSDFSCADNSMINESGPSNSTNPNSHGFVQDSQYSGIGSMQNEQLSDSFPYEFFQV
B3: Tuftelin-interacting protein 11 (Homo sapiens), Q9UBB9 (parent)
chain: MSLSHLYRDGEGRIDDDDDERENFEITDWDLQNEFNPNRQRHWQTKEEATYGVWAERDSDDERPSFGGKRARDYSAPVNFISAGLKKGAAEEAELEDSDDEEKPVKQDDFPKDFGPRKLKTGGNFKPSQKGFAGGTKSFMDFGSWERHTKGIGQKLLQKMGYVPGRGLGKNAQGIINPIEAKQRKGKGAVGAYGSERTTQSMQDFPVVDSEEEAEEEFQKELSQWRKDPSGSKKKPKYSYKTVEELKAKGRISKKLTAPQKELSQVKVIDMTGREQKVYYSYSQISHKHNVPDDGLPLQSQQLPQSGKEAKAPGFALPELEHNLQLLIDLTEQEIIQNDRQLQYERDMVVNLFHELEKMTEVLDHEERVISNLSKVLEMVEECERRMQPDCSNPLTLDECARIFETLQDKYYEEYRMSDRVDLAVAIVYPLMKEYFKEWDPLKDCTYGTEIISKWKSLLENDQLLSHGGQDLSADAFHRLIWEVWMPFVRNIVTQWQPRNCDPMVDFLDSWVHIIPVWILDNILDQLIFPKLQKEVENWNPLTDTVPIHSWIHPWLPLMQARLEPLYSPIRSKLSSALQKWHPSDSSAKLILQPWKDVFTPGSWEAFMVKNIVPKLGMCLGELVINPHQQHMDAFYWVIDWEGMISVSSLVGLLEKHFFPKWLQVLCSWLSNSPNYEEITKWYLGWKSMFSDQVLAHPSVKDKFNEALDIMNRAVSSNVGAYMQPGARENIAYLTHTERRKDFQYEAMQERREAENMAQRGIGVAASSVPMNFKDLIETKAEEHNIVFMPVIGKRHEGKQLYTFGRIVIYIDRGVVFVQGEKTWVPTSLQSLIDMAK
partner: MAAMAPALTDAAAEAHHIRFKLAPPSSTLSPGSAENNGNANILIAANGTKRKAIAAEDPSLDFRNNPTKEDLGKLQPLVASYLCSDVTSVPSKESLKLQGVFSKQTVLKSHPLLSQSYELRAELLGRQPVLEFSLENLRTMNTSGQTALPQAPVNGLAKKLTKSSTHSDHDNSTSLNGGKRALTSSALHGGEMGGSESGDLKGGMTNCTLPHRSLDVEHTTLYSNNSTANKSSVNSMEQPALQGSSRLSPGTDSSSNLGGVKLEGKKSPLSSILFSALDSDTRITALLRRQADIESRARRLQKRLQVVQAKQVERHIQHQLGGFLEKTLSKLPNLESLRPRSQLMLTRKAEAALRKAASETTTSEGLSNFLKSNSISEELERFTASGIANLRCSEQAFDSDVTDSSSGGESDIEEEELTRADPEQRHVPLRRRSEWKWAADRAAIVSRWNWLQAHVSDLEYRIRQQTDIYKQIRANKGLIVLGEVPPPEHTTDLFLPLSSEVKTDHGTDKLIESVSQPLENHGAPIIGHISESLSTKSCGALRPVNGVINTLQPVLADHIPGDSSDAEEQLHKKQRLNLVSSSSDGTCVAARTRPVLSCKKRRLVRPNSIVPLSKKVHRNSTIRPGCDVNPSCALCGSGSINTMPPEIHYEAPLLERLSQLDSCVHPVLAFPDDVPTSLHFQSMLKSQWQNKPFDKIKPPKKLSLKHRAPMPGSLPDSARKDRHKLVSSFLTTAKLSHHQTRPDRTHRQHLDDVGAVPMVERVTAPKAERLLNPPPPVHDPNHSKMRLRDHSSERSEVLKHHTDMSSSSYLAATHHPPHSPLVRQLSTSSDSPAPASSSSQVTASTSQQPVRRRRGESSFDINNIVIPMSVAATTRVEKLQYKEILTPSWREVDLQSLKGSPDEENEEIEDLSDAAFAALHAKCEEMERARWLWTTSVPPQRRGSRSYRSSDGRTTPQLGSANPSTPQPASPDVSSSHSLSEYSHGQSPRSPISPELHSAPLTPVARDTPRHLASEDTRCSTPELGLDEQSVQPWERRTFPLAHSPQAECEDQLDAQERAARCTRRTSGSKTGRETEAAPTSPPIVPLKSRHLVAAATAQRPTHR
B4: Myomegalin (Homo sapiens), Q5VU43-2 (parent)
chain: MKEICRICARELCGNQRRWIFHTASKLNLQVLLSHVLGKDVPRDGKAEFACSKCAFMLDRIYRFDTVIARIEALSIERLQKLLLEKDRLKFCIASMYRKNNDDSGAEIKAGNGTVDMSVLPDARYSALLQEDFAYSGFECWVENEDQIQEPHSCHGSEGPGNRPRRCRGCAALRVADSDYEAICKVPRKVARSISCGPSSRWSTSICTEEPALSEVGPPDLASTKVPPDGESMEEETPGSSVESLDASVQASPPQQKDEETERSAKELGKCDCCSDDQAPQHGCNHKLELALSMIKGLDYKPIQSPRGSRLPIPVKSSLPGAKPGPSMTDGVSSGFLNRSLKPLYKTPVSYPLELSDLQELWDDLCEDYLPLRVQPMTEELLKQQKLNSHETTITQQSVSDSHLAELQEKIQQTEATNKILQEKLNEMSYELKCAQESSQKQDGTIQNLKETLKSRERETEELYQVIEGQNDTMAKLREMLHQSQLGQLHSSEGTSPAQQQVALLDLQSALFCSQLEIQKLQRVVRQKERQLADAKQCVQFVEAAAHESEQQKEASWKHNQELRKALQQLQEELQNKSQQLRAWEAEKYNEIRTQEQNIQHLNHSLSHKEQLLQEFRELLQYRDNSDKTLEANEMLLEKLRQRIHDKAVALERAIDEKFSALEEKEKELRQLRLAVRERDHDLERLRDVLSSNEATMQSMESLLRAKGLEVEQLSTTCQNLQWLKEEMETKFSRWQKEQESIIQQLQTSLHDRNKEVEDLSATLLCKLGPGQSEIAEELCQRLQRKERMLQDLLSDRNKQVLEHEMEIQGLLQSVSTREQESQAAAEKLVQALMERNSELQALRQYLGGRDSLMSQAPISNQQAEVTPTGRLGKQTDQGSMQIPSRDDSTSLTAKEDVSIPRSTLGDLDTVAGLEKELSNAKEELELMAKKERESQMELSALQSMMAVQEEELQVQAADMESLTRNIQIKEDLIKDLQMQLVDPEDIPAMERLTQEVLLLREKVASVESQGQEISGNRRQQLLLMLEGLVDERSRLNEALQAERQLYSSLVKFHAHPESSERDRTLQVELEGAQVLRSRLEEVLGRSLERLNRLETLAAIGGAAAGDDTEDTSTEFTDSIEEEAAHHSHQQL
B5: Myomegalin (Homo sapiens), Q5VU43-2 (parent)
chain: B4 chain
partner: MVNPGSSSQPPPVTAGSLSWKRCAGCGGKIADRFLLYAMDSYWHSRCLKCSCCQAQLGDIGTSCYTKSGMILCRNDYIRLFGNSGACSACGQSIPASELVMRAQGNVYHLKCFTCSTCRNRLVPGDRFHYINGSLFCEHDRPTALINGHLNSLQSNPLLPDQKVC

Variants of: B1
Details: with tfp11_human TFIP11, Q9UBB9

effect of a mutation on the interaction	Variant
with no effect	P157S

Variants of: B2
Details: with rel_human REL

effect of a mutation on the interaction	Variant
with no effect	R159W
with no effect	F229L
with no effect	Y102C

Variants of: B3
Details: with kanl1_human KANSL1, Q7Z3B3

effect of a mutation on the interaction	Variant
with no effect	R8Q
with no effect	S688L

Variants of: B4
Details: with prp31_human PRPF31, Q8WWY3
prp31_human PRPF31, Q8WWY3, sequence (Q8WWY3 whole entry): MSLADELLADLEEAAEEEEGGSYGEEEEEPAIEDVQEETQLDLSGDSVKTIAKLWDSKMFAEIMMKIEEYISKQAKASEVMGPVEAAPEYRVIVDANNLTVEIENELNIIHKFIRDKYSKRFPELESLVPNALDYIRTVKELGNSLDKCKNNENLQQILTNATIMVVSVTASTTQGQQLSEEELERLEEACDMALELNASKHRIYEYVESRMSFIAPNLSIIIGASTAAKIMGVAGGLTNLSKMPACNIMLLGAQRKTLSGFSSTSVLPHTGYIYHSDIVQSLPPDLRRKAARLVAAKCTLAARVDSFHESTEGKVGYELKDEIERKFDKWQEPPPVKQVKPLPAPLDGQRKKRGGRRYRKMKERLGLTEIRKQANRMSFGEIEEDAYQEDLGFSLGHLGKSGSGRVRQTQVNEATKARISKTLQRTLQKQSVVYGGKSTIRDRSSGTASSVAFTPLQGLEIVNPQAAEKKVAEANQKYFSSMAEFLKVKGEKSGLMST

effect of a mutation on the interaction	Variant
with no effect	N28S

Variants of: B4
Details: with sdcb1_human SDCBP

effect of a mutation on the interaction	Variant
with no effect	N28S

Variants of: B4
Details: with mare1_human MAPRE1, Q15691
mare1_human MAPRE1, Q15691, sequence (Q15691 whole entry): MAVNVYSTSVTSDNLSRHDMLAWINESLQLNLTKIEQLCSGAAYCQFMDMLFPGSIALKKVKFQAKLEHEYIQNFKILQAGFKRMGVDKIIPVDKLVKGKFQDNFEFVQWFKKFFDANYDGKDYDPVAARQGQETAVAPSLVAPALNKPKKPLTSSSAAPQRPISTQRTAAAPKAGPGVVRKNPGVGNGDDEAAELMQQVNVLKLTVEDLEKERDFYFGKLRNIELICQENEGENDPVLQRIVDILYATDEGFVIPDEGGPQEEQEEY

effect of a mutation on the interaction	Variant
with no effect	N28S

Variants of: B5
Details: with lmo4_human LMO4, P61968

effect of a mutation on the interaction	Variant
with no effect	N28S
